Laboratory results: paper PMC7865249

Legend:
[1] = molecular target: H111A HupZ-V5-His6 (Streptococcus pyogenes (Group A Streptococcus)); assay: SEC; ligand-free protein, 200 uM, 1 mL injected; Superdex Increase 200 10/300 GL, 20 mM Tris-HCl, 50 mM NaCl, pH 7.4, 0.4 mL/min; mass from a calibration curve of standards
[2] = molecular target: H111A HupZ-V5-His6 (Streptococcus pyogenes (Group A Streptococcus)); assay: SEC; protein reconstituted with 1.2 eq hemin and desalted, 200 uM, 1 mL injected; Superdex Increase 200 10/300 GL, 20 mM Tris-HCl, 50 mM NaCl, pH 7.4, 0.4 mL/min; mass from a calibration curve of standards
[3] = molecular target: HupZ-V5-His6 (heme utilization protein Z with a C-terminal V5-His6 tag) (Streptococcus pyogenes (Group A Streptococcus)); assay: SEC; ligand-free protein, 200 uM, 1 mL injected; Superdex Increase 200 10/300 GL, 20 mM Tris-HCl, 50 mM NaCl, pH 7.4, 0.4 mL/min; mass from a calibration curve of standards
[4] = molecular target: HupZ-V5-His6 (heme utilization protein Z with a C-terminal V5-His6 tag) (Streptococcus pyogenes (Group A Streptococcus)); assay: SEC; protein reconstituted with 1.2 eq hemin and desalted, 200 uM, 1 mL injected; Superdex Increase 200 10/300 GL, 20 mM Tris-HCl, 50 mM NaCl, pH 7.4, 0.4 mL/min; mass from a calibration curve of standards

Substance: H111A HupZ-V5-His6 (natural protein)
- stoichiometry N [1]: 2
- stoichiometry N [2]: 2

Substance: HupZ-V5-His6 (heme utilization protein Z with a C-terminal V5-His6 tag) (natural protein)
- stoichiometry N [3]: 2
- stoichiometry N [4]: 2
